T1: MUC1* extracellular domain peptide (PSMGFR, primary sequence of the MUC1 growth factor receptor)
T1 construct: Synthetic peptide adsorbed onto ELISA plates; The immunogen carried an extra C-terminal cysteine for KLH conjugation; also called MUC1* peptide; PSMGFR peptide
T1 peptide: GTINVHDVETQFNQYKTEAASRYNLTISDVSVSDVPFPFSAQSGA


Key:
[1] = molecular target: T1, MUC1* extracellular domain peptide …; experiment: competition ELISA, peptide on plate, competitor: parent MIN-C2 antibody
Description: To test the ability of the Fab produced by papain digestion to compete with the parent antibody for binding to the MUC1* peptide, varying concentrations of the Fab were added. After wash steps, the ELISA was processed by standard methods.

[2] = molecular target: T1, MUC1* extracellular domain peptide …; experiment: ELISA on plate-adsorbed peptide; reference: refolded scFv before peptide affinity chromatography

Row | binding result [1] | fold higher specific activity after antigen affinity purification [2] [fold] | fold improvement of specific binding after antigen affinity purification [2] [fold] | Binder
1 | binds | – | – | MIN-C2 Fab (papain digestion of MIN-C2 antibody) (Fab, V domains shown, Enzymatic Fab of about 50 kD made by papain digestion of the parent mAb; also called monovalent form of MIN-C2) VH: EVQLEESGGGLVKPGGSLKLSCAASGFTFSGYAMSWVRQTPEKRLEWVATISSGGTYIYYPDSVKGRFTISRDNAKNTLYLQMSSLRSEDTAMYYCARLGGDNYYEYFDVWGAGTTVTVSS VL: DIVITQSTASLGVSLGQRATISCRASKSVSTSGYSYMHWYQQRPGQPPKLLIYLASNLESGVPARFSGSGSGTDFTLNIHPVEEEDAATYYCQHSRELPFTFGGGTKLEIKR
2 | – | ~10 | 10 | MIN-C2 scFv (heavy chain variable-linker-light chain variable, C-terminal poly-histidine tag) (scFv, part was further purified on a PSMGFR peptide column; also called scFv protein; recombinant scFv) scFv: EVQLEESGGGLVKPGGSLKLSCAASGFTFSGYAMSWVRQTPEKRLEWVATISSGGTYIYYPDSVKGRFTISRDNAKNTLYLQMSSLRSEDTAMYYCARLGGDNYYEYFDVWGAGTTVTVSSAKTTPPSVYGGGGSGGGGSGGGGSDIVITQSTASLGVSLGQRATISCRASKSVSTSGYSYMHWYQQRPGQPPKLLIYLASNLESGVPARFSGSGSGTDFTLNIHPVEEEDAATYYCQHSRELPFTFGGGTKLEIKRADAAPTVSVDHHHHHH

Reference: patent US20200239594A1 (MINERVA BIOTECHNOLOGIES, published 2020)
